Target: recombinant Small basic protein (rSbp) (S. epidermidis)
Assay: ELISA; competition; rSbp (150 μg/ml in PBS) pre-incubated with soluble rDomain-B (0.4-100 μg/ml) for 1 h at 4°C, then loaded into rDomain-B-coated wells; inhibition = (1 - A405 with rDomain-B / A405 without) x 100

recombinantly expressed Aap domain-B (rDomain-B) (domain or fragment)
percent inhibition of rSbp binding to immobilized rDomain-B: 80%
